Here are results for five molecules from patent US20230174608A1 (published 2023).

Where no end group is shown, it is not given here. [ ]: non-standard residue; d: D form. Aib = CC(C)(N)C(=O)O

For assay [1], the target named is Glucagon receptor (GCGR), stably expressed on HEK293 cells. As to the kind of experiment: cell-based or functional assay.
Assay [2] has as its target GLP-1 receptor (GLP-1R), stably expressed on HEK293 cells. As to the kind of experiment: cell-based or functional assay.

B1: dgc003 (peptide)
peptide: HXQGTFTSDYSKYLDERAAKEFIAWLEAGG
HELM: PEPTIDE1{H.[Aib].Q.G.T.F.T.S.D.Y.S.K.Y.L.D.E.R.A.A.K.E.F.I.A.W.L.E.A.G.G.[am]}|PEPTIDE2{[CCCCCCCCCCCCCCCC(=O)[*:2]].[gGlu]}$PEPTIDE1,PEPTIDE2,20:R3-2:R2$$$V2.0; N-terminus assumed
SMILES: CCCCCCCCCCCCCCCC(=O)N[C@@H](CCC(=O)NCCCC[C@H](NC(=O)[C@H](C)NC(=O)[C@H](C)NC(=O)[C@H](CCCNC(=N)N)NC(=O)[C@H](CCC(=O)O)NC(=O)[C@H](CC(=O)O)NC(=O)[C@H](CC(C)C)NC(=O)[C@H](Cc1ccc(O)cc1)NC(=O)[C@H](CCCCN)NC(=O)[C@H](CO)NC(=O)[C@H](Cc1ccc(O)cc1)NC(=O)[C@H](CC(=O)O)NC(=O)[C@H](CO)NC(=O)[C@@H](NC(=O)[C@H](Cc1ccccc1)NC(=O)[C@@H](NC(=O)CNC(=O)[C@H](CCC(N)=O)NC(=O)C(C)(C)NC(=O)[C@@H](N)Cc1c[nH]cn1)[C@@H](C)O)[C@@H](C)O)C(=O)N[C@@H](CCC(=O)O)C(=O)N[C@@H](Cc1ccccc1)C(=O)N[C@H](C(=O)N[C@@H](C)C(=O)N[C@@H](Cc1c[nH]c2ccccc12)C(=O)N[C@@H](CC(C)C)C(=O)N[C@@H](CCC(=O)O)C(=O)N[C@@H](C)C(=O)NCC(=O)NCC(N)=O)[C@@H](C)CC)C(=O)O
Turning to B1, in assay [1], the “GCGR (nM EC50), receptor-mediated cAMP production in HEK293 cells” value (“GCGR (nM EC50)” below) turned out to be 1.04 nM. Besides, the “GLP-1R (nM EC50), receptor-mediated cAMP production in HEK293 cells” value (“GLP-1R (nM EC50)” below) in assay [2] stood at 0.291 nM.

B2: dgc020 (peptide)
peptide: HXQGTFTSDYSKYLEERAAKEFIAWLEGEG
HELM: PEPTIDE1{H.[Aib].Q.G.T.F.T.S.D.Y.S.K.Y.L.E.E.R.A.A.K.E.F.I.A.W.L.E.G.E.G.[am]}|PEPTIDE2{[CCCCCCCCCCCCCCCC(=O)[*:2]].[gGlu].[gGlu]}$PEPTIDE1,PEPTIDE2,20:R3-3:R2$$$V2.0; N-terminus assumed
SMILES: CCCCCCCCCCCCCCCC(=O)N[C@@H](CCC(=O)N[C@@H](CCC(=O)NCCCC[C@H](NC(=O)[C@H](C)NC(=O)[C@H](C)NC(=O)[C@H](CCCNC(=N)N)NC(=O)[C@H](CCC(=O)O)NC(=O)[C@H](CCC(=O)O)NC(=O)[C@H](CC(C)C)NC(=O)[C@H](Cc1ccc(O)cc1)NC(=O)[C@H](CCCCN)NC(=O)[C@H](CO)NC(=O)[C@H](Cc1ccc(O)cc1)NC(=O)[C@H](CC(=O)O)NC(=O)[C@H](CO)NC(=O)[C@@H](NC(=O)[C@H](Cc1ccccc1)NC(=O)[C@@H](NC(=O)CNC(=O)[C@H](CCC(N)=O)NC(=O)C(C)(C)NC(=O)[C@@H](N)Cc1c[nH]cn1)[C@@H](C)O)[C@@H](C)O)C(=O)N[C@@H](CCC(=O)O)C(=O)N[C@@H](Cc1ccccc1)C(=O)N[C@H](C(=O)N[C@@H](C)C(=O)N[C@@H](Cc1c[nH]c2ccccc12)C(=O)N[C@@H](CC(C)C)C(=O)N[C@@H](CCC(=O)O)C(=O)NCC(=O)N[C@@H](CCC(=O)O)C(=O)NCC(N)=O)[C@@H](C)CC)C(=O)O)C(=O)O
B2: the “GCGR (nM EC50)” value in assay [1] stood at 0.883 nM. For the same molecule, the “GLP-1R (nM EC50)” value in assay [2] was 1.51 nM.
Regarding HSQGTFTSDYSKYLDERAAKEFIAWLEAGG-NH2 (not fully specified (residue 20); printed as HSQGTFTSDYSKYLDERAAK*EFIAWLEAGG) [dgc001], in assay [1], the “GCGR (nM EC50)” value turned out to be 0.806 nM. Moreover, the “GLP-1R (nM EC50)” value in assay [2] is 1.13 nM.

B3: dgc019 (peptide)
peptide: HXQGTFTSDYSKYLEERAAKEFIAWLEGEG
HELM: PEPTIDE1{H.[Aib].Q.G.T.F.T.S.D.Y.S.K.Y.L.E.E.R.A.A.K.E.F.I.A.W.L.E.G.E.G.[am]}|PEPTIDE2{[CCCCCCCCCCCCCCCC(=O)[*:2]].[gGlu]}$PEPTIDE1,PEPTIDE2,20:R3-2:R2$$$V2.0; N-terminus assumed
SMILES: CCCCCCCCCCCCCCCC(=O)N[C@@H](CCC(=O)NCCCC[C@H](NC(=O)[C@H](C)NC(=O)[C@H](C)NC(=O)[C@H](CCCNC(=N)N)NC(=O)[C@H](CCC(=O)O)NC(=O)[C@H](CCC(=O)O)NC(=O)[C@H](CC(C)C)NC(=O)[C@H](Cc1ccc(O)cc1)NC(=O)[C@H](CCCCN)NC(=O)[C@H](CO)NC(=O)[C@H](Cc1ccc(O)cc1)NC(=O)[C@H](CC(=O)O)NC(=O)[C@H](CO)NC(=O)[C@@H](NC(=O)[C@H](Cc1ccccc1)NC(=O)[C@@H](NC(=O)CNC(=O)[C@H](CCC(N)=O)NC(=O)C(C)(C)NC(=O)[C@@H](N)Cc1c[nH]cn1)[C@@H](C)O)[C@@H](C)O)C(=O)N[C@@H](CCC(=O)O)C(=O)N[C@@H](Cc1ccccc1)C(=O)N[C@H](C(=O)N[C@@H](C)C(=O)N[C@@H](Cc1c[nH]c2ccccc12)C(=O)N[C@@H](CC(C)C)C(=O)N[C@@H](CCC(=O)O)C(=O)NCC(=O)N[C@@H](CCC(=O)O)C(=O)NCC(N)=O)[C@@H](C)CC)C(=O)O
Regarding B3, the “GCGR (nM EC50)” value in assay [1] stood at 1.83 nM. For the same molecule, the “GLP-1R (nM EC50)” value in assay [2] was 0.792 nM.
In the case of H[Aib]QGTFTSDYSKYLEERAAKEFIAWLEGEG-NH2 (not fully specified (residue 20); printed as HAibQGTFTSDYSKYLEERAAK*EFIAWLEGEG) [dgc021], the “GCGR (nM EC50)” value in assay [1] is 3.93 nM. In assay [2], the “GLP-1R (nM EC50)” value was 0.382 nM.
